Data taken from article doi:10.1101/2021.07.15.452591 (bioRxiv, 2021).

Experiments:
dynamic light scattering = molecular target: the molecule itself; assay: dynamic light scattering
SEC = molecular target: the molecule itself; assay: SEC
crystal structure = molecular target: the molecule itself; assay: crystal structure

Protein | stoichiometry N (dynamic light scattering) | stoichiometry N (SEC) | stoichiometry N (crystal structure)
AmnC ΔOD1 (Δ124-138 and Δ477-491) (enzyme, Pseudomonas sp. AP-3, UniProt Q9KWS5 1-476, looked up) MKQYRNFVDGKWVESSKTFQDVTPIDGSVVAVVHEADRDLVDAAVKAGHRALEGEWGRTTAAQRVDWLRRIANEMERRQQDFLDAEMADTGKPLSMAATIDIPRGIANFRNFADILATAPVDSARKPLGVVGVISPWNLPLLLLTWKVAPALACGNAVVVKPSEDTPGTATLLAEVMEAVGIPPGVFNLVHGFGPNSAGEFISQHPDISAITFTGESKTGSTIMRAAAEGVKPVSFELGGKNAAVIFADCDFEKMLDGMMRALFLNSGQVCLCSERVYVERPIFDRFCVALAERIKALKVDWPHETDTQMGPLISSKHRDKVLSYFELARQEGATFLAGGGVPRFGDERDNGAWVEPTVIAGLSDDARVVREEIFGPICHVTPFDSESEVIRRANDTRYGLAATIWTTNLSRAHRVSELMRVGISWVNTWFLRDLRTPFGGAGLSGIGREGGMHSLNFYSE | 2 | ~2 | 
2-aminomuconic 6-semialdehyde dehydrogenase (AmnC), wild type (enzyme, Pseudomonas sp. AP-3, UniProt Q9KWS5 1-491, looked up) MKQYRNFVDGKWVESSKTFQDVTPIDGSVVAVVHEADRDLVDAAVKAGHRALEGEWGRTTAAQRVDWLRRIANEMERRQQDFLDAEMADTGKPLSMAATIDIPRGIANFRNFADILATAPVDSHRLDLPDGAYALNYAARKPLGVVGVISPWNLPLLLLTWKVAPALACGNAVVVKPSEDTPGTATLLAEVMEAVGIPPGVFNLVHGFGPNSAGEFISQHPDISAITFTGESKTGSTIMRAAAEGVKPVSFELGGKNAAVIFADCDFEKMLDGMMRALFLNSGQVCLCSERVYVERPIFDRFCVALAERIKALKVDWPHETDTQMGPLISSKHRDKVLSYFELARQEGATFLAGGGVPRFGDERDNGAWVEPTVIAGLSDDARVVREEIFGPICHVTPFDSESEVIRRANDTRYGLAATIWTTNLSRAHRVSELMRVGISWVNTWFLRDLRTPFGGAGLSGIGREGGMHSLNFYSELTNVCVRIDKESPDV |  |  | 4
AmnC ΔOD2 (S123G, H124G, L425A) (enzyme, Pseudomonas sp. AP-3, UniProt Q9KWS5 1-491, looked up) MKQYRNFVDGKWVESSKTFQDVTPIDGSVVAVVHEADRDLVDAAVKAGHRALEGEWGRTTAAQRVDWLRRIANEMERRQQDFLDAEMADTGKPLSMAATIDIPRGIANFRNFADILATAPVDGGRLDLPDGAYALNYAARKPLGVVGVISPWNLPLLLLTWKVAPALACGNAVVVKPSEDTPGTATLLAEVMEAVGIPPGVFNLVHGFGPNSAGEFISQHPDISAITFTGESKTGSTIMRAAAEGVKPVSFELGGKNAAVIFADCDFEKMLDGMMRALFLNSGQVCLCSERVYVERPIFDRFCVALAERIKALKVDWPHETDTQMGPLISSKHRDKVLSYFELARQEGATFLAGGGVPRFGDERDNGAWVEPTVIAGLSDDARVVREEIFGPICHVTPFDSESEVIRRANDTRYGLAATIWTTNASRAHRVSELMRVGISWVNTWFLRDLRTPFGGAGLSGIGREGGMHSLNFYSELTNVCVRIDKESPDV | 2 | ~2 | 
